Experimental data from the Immune Epitope Database (IEDB).
Blank lines part the entries; values can stand above or below the sequence they belong to.

Tests used:
HLA-B*48:01 = assay: IEDB peptide-MHC binding, purified MHC/direct/fluorescence; filed as Kd, often an IC50 or EC50 that approximates it; ≥ and ≤ were set here for values at or beyond the usual limits of such assays
HLA-C*07:02 = assay: as above; settings: source organism: Yellow fever virus
HLA-B*27:20 = assay: IEDB peptide-MHC binding, purified MHC/competitive/fluorescence; filed as Kd, often an IC50 or EC50 that approximates it; ≥ and ≤ were set here for values at or beyond the usual limits of such assays
HLA-B*83:01 = assay: as above
HLA-C*06:02 [1] = assay: as above; settings: source organism: Yellow fever virus
HLA-B*45:06 = assay: as above
HLA-B*15:42 = assay: as above
HLA-B*40:02 = assay: IEDB peptide-MHC binding, cellular MHC/competitive/fluorescence; ≥ and ≤ were set here for values at or beyond the usual limits of such assays; settings: source organism: Homo sapiens
HLA-B*27:05 = assay: IEDB peptide-MHC binding, purified MHC/direct/fluorescence; filed as Kd, often an IC50 or EC50 that approximates it; ≥ and ≤ were set here for values at or beyond the usual limits of such assays
HLA-B*35:01 [2] = assay: as above; settings: source organism: Vibrio cholerae
HLA-B*15:01 = assay: as above
HLA-B*07:02 [3] = assay: as above
HLA-A*01:01 = assay: as above
HLA-A*31:01 [4] = assay: as above; settings: source organism: Vibrio cholerae
HLA-B*08:01 = assay: as above
HLA-C*06:02 [5] = assay: as above; settings: source organism: Vibrio cholerae 2740-80
HLA-C*12:03 = assay: as above; settings: source organism: Vibrio cholerae 2740-80
HLA-A*69:01 = assay: as above
HLA-A*02:01 [6] = assay: as above
HLA-B*40:01 = assay: as above
HLA-A*03:01 = assay: as above
HLA-A*11:01 = assay: as above
HLA-B*44:02 = assay: as above; settings: source organism: Vibrio cholerae
HLA-A*26:01 = assay: as above; settings: source organism: Vibrio cholerae
HLA-B*58:01 = assay: as above
HLA-A*02:50 = assay: IEDB peptide-MHC binding, purified MHC/competitive/fluorescence; filed as Kd, often an IC50 or EC50 that approximates it; ≥ and ≤ were set here for values at or beyond the usual limits of such assays; settings: source organism: Vibrio cholerae 2740-80
HLA-B*46:01 [7] = assay: as above; settings: source organism: Vibrio cholerae 2740-80
HLA-B*73:01 = assay: as above; settings: source organism: Burkholderia mallei SAVP1
HLA-B*07:02 [8] = assay: IEDB peptide-MHC binding, purified MHC/competitive/radioactivity; ≥ and ≤ were set here for values at or beyond the usual limits of such assays; settings: source organism: dengue virus type 4
HLA-B*35:01 [9] = assay: IEDB peptide-MHC binding, purified MHC/competitive/radioactivity; filed as Kd, often an IC50 or EC50 that approximates it; ≥ and ≤ were set here for values at or beyond the usual limits of such assays; settings: source organism: Dengue virus 4 Philippines/H241/1956
HLA-B*53:01 = assay: as above; settings: source organism: Dengue virus 4 Philippines/H241/1956
HLA-B*35:01 [10] = assay: IEDB peptide-MHC binding, purified MHC/competitive/radioactivity; ≥ and ≤ were set here for values at or beyond the usual limits of such assays; settings: source organism: Human papillomavirus 16
HLA-B*39:01 = assay: IEDB peptide-MHC binding, purified MHC/direct/fluorescence; filed as Kd, often an IC50 or EC50 that approximates it; ≥ and ≤ were set here for values at or beyond the usual limits of such assays; settings: source organism: Yersinia pestis CA88-4125
HLA-B*15:09 = assay: as above; settings: source organism: Yersinia pestis CA88-4125
HLA-B*51:01 = assay: as above; settings: source organism: Yersinia pestis
HLA-B*38:01 = assay: as above; settings: source organism: Yersinia pestis CA88-4125
HLA-B*57:01 = assay: as above; settings: source organism: Yersinia pestis
HLA-B*18:01 = assay: as above; settings: source organism: Yersinia pestis
HLA-B*46:01 [11] = assay: as above; settings: source organism: Yersinia pestis
HLA-B*15:17 = assay: as above; settings: source organism: Yersinia pestis
HLA-A*31:01 [12] = assay: IEDB peptide-MHC binding, purified MHC/competitive/fluorescence; filed as Kd, often an IC50 or EC50 that approximates it; ≥ and ≤ were set here for values at or beyond the usual limits of such assays; settings: source organism: Yersinia pestis KIM10+
HLA-A*02:11 = assay: as above; settings: source organism: Mycobacterium tuberculosis variant bovis BCG str. Pasteur 1173P2
HLA-C*04:01 = assay: as above; settings: source organism: Mycobacterium tuberculosis variant bovis BCG str. Pasteur 1173P2
HLA-A*02:01 [13] = assay: as above; settings: source organism: Mycobacterium tuberculosis variant bovis BCG str. Pasteur 1173P2
[14] = source organism: Yellow fever virus
[15] = source organism: Vibrio cholerae
[16] = source organism: Yersinia pestis
[17] = source organism: Yersinia pestis CA88-4125
[18] = source organism: Mycobacterium tuberculosis variant bovis BCG str. Pasteur 1173P2

Sequence: RRRLRTLVL
Kd (HLA-B*48:01; source organism: Yellow fever virus 17D): 2.93 µM
Kd (HLA-C*07:02): 0.225 µM
Kd (HLA-B*27:20; [14]): 0.0002 µM
Kd (HLA-B*83:01; [14]): ≥ 5 µM
Kd (HLA-C*06:02 [1]): 0.0505 µM
Kd (HLA-B*45:06; [14]): ≥ 5 µM
Kd (HLA-B*15:42; [14]): ≥ 5 µM

IC50 (HLA-B*40:02): 1.1 µM
Sequence: SELSPGRSV

Sequence: MMFDAMGAL
Kd (HLA-B*27:05; [15]): ≥ 20 µM
Kd (HLA-B*35:01 [2]): 0.0185 µM
Kd (HLA-B*15:01; [15]): 0.0372 µM
Kd (HLA-B*07:02 [3]; [15]): 5.75 µM
Kd (HLA-A*01:01; [15]): 11.2 µM
Kd (HLA-A*31:01 [4]): 0.921 µM
Kd (HLA-B*08:01; [15]): 5.76 µM
Kd (HLA-C*06:02 [5]): 1.48 µM
Kd (HLA-C*12:03): 0.046 µM
Kd (HLA-A*69:01; [15]): 0.0331 µM
Kd (HLA-A*02:01 [6]; [15]): 0.328 µM
Kd (HLA-B*40:01; [15]): ≥ 20 µM
Kd (HLA-A*03:01; [15]): 1.46 µM
Kd (HLA-A*11:01; [15]): 9.31 µM
Kd (HLA-B*44:02): ≥ 20 µM
Kd (HLA-A*26:01): 1.23 µM
Kd (HLA-B*58:01; [15]): ≥ 20 µM
Kd (HLA-A*02:50): 0.0002 µM
Kd (HLA-B*46:01 [7]): 0.0227 µM

Sequence: RRFWVGYQQ
Kd (HLA-B*73:01): 0.893 µM

Sequence: LPSIVREAL
IC50 (HLA-B*07:02 [8]): 0.00031 µM
Kd (HLA-B*35:01 [9]): 0.0828 µM
Kd (HLA-B*53:01): 0.0406 µM

Sequence: SAFRCFIVY
IC50 (HLA-B*35:01 [10]): 0.0014 µM

Sequence: RPQLWRYRW
Kd (HLA-B*27:05; [16]): ≥ 20 µM
Kd (HLA-B*15:01; [16]): ≥ 20 µM
Kd (HLA-B*07:02 [3]; [16]): 0.97 µM
Kd (HLA-B*39:01): 3.18 µM
Kd (HLA-A*01:01; [16]): ≥ 20 µM
Kd (HLA-B*08:01; [17]): ≥ 20 µM
Kd (HLA-B*48:01; [16]): ≥ 20 µM
Kd (HLA-B*15:09): ≥ 20 µM
Kd (HLA-A*69:01; [16]): ≥ 20 µM
Kd (HLA-B*51:01): ≥ 20 µM
Kd (HLA-A*02:01 [6]; [16]): ≥ 20 µM
Kd (HLA-B*40:01; [16]): ≥ 20 µM
Kd (HLA-A*03:01; [16]): ≥ 20 µM
Kd (HLA-B*38:01): ≥ 20 µM
Kd (HLA-B*57:01): 0.343 µM
Kd (HLA-A*11:01; [16]): ≥ 20 µM
Kd (HLA-B*18:01): ≥ 20 µM
Kd (HLA-B*46:01 [11]): ≥ 20 µM
Kd (HLA-B*15:17): ≥ 20 µM
Kd (HLA-B*58:01; [17]): 0.328 µM
Kd (HLA-A*31:01 [12]): 1.81 µM

Sequence: AEFGPWQTV
Kd (HLA-B*27:20; [18]): 0.185 µM
Kd (HLA-B*83:01; [18]): ≥ 5 µM
Kd (HLA-A*02:11): 0.125 µM
Kd (HLA-C*04:01): ≥ 5 µM
Kd (HLA-A*02:01 [13]): 1.64 µM
Kd (HLA-B*45:06; [18]): ≥ 5 µM
Kd (HLA-B*15:42; [18]): ≥ 5 µM
